Two substances from US20060147378A1, “Azulene dimer-quenched, near-infrared fluorescent probes” (priority 2002, published 2006) can be followed below.

Where no end group is shown, it is not given here. Alexa‑680 maleimide = near-infrared fluorochrome (Ex 679 nm, Em 702 nm) reacted with the cysteine; NIRQ750 = not defined here

Data set [1] has as its system T1, NIRQ750-GDEVDGSGC-Alexa-680 caspase-3 substrate probe.
T1 sequence: GDEVDGSGC

In the next data set the target is T2, caspase-3 (Homo sapiens, UniProt P42574).
T2 sequence (P42574 29-175 limits assumed): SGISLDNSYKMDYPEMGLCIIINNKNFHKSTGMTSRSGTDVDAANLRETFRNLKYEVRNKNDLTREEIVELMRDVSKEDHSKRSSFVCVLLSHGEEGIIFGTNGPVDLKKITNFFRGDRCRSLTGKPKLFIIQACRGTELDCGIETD
T2 sequence (P42574 176-277 limits assumed): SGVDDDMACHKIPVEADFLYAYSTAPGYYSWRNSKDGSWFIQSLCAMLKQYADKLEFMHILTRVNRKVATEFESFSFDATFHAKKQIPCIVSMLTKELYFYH
Kind of data set: Activation of NIRF probes by caspase-3 with or without inhibitor. It counts as biochemical. Here is the method: The HPLC purified NIRF probes were tested against caspase-3 with or without an inhibitor of the enzyme in pH7.2 buffer (20 mM PIPES, 100 mM NaCl, 10 mM DTT, 1 mM EDTA, 0.1% CHAPS, 10% sucrose). Within 180 minutes, the fluorescence signal of NIRQ750-probe (probe 6, FIG. 7A) had increased about 4-fold while no activation was observed when the caspase-3 specific inhibitor was present (FIG. 7B). […] As expected, the fluorescence signal of both negative controls, (probe 7, FIG. 7A) with enzyme and probe 6 without enzyme, were remained unchanged.

Take caspase-3: in data set [1], the “fluorescence signal increase (probe activation by enzymatic cleavage) within 180 minutes” value was “had increased about 4-fold”.
Regarding “probe 6: NIRQ750 anchored to N-terminus of caspase-3 cleavable peptide GDEVDGSGC, Alexa-680 maleimide on the cysteine residue (NIRQ750-GDEVDGSGC(Alexa‑680 maleimide); not fully specified (C-terminus); reading uncertain)”, the “activation (fluorescence signal) with caspase-3 specific inhibitor present” value in the data set with caspase-3 (caspase-3 plus caspase-3 specific inhibitor, pH7.2 buffer) was “no activation”. Further, the “fluorescence signal without enzyme” value with caspase-3 (negative control, no enzyme, pH7.2 buffer) is “unchanged”. Further, the “increase of fluorescence signal” value with caspase-3 (with caspase-3, within 180 minutes, pH7.2 buffer (PIPES, NaCl, DTT, EDTA, CHAPS, sucrose)) was “about 4 fold”.
